Measurements taken from publication doi:10.1101/2020.12.02.409011 (bioRxiv, 2020).

Target: the molecule itself
Assay: crystal structure

B1: Bacillus subtilis PurR (purine synthesis transcription regulator), untagged (natural protein)
chain: MKFRRSGRLVDLTNYLLTHPHELIPLTFFSERYESAKSSISEDLTIIKQTFEQQGIGTLLTVPGAAGGVKYIPKMKQAEAEEFVQTLGQSLANPERILPGGYVYLTDILGKPSVLSKVGKLFASVFAEREIDVVMTVATKGIPLAYAAASYLNVPVVIVRKDNKVTEGSTVSINYVSGSSNRIQTMSLAKRSMKTGSNVLIIDDFMKAGGTINGMINLLDEFNANVAGIGVLVEAEGVDERLVDEYMSLLTLSTINMKEKSIEIQNGNFLRFFKDNLLKNGETES
Does B1 bind?
Result: binds
